Source: PMC11798926

Target: myc-tagged SynDIG4 (wild type), Q6MG82
Assay: co-immunoprecipitation (IP: HA, blot: myc), quantified
Conditions: chain shown with the change; HEK293T cells; fourth bar chart of panel D (µ2 FLD vs µ2 ALS); parent: est. 100; read off a plot

Chain of myc-tagged SynDIG4 (wild type), Q6MG82 (Q6MG82 whole entry): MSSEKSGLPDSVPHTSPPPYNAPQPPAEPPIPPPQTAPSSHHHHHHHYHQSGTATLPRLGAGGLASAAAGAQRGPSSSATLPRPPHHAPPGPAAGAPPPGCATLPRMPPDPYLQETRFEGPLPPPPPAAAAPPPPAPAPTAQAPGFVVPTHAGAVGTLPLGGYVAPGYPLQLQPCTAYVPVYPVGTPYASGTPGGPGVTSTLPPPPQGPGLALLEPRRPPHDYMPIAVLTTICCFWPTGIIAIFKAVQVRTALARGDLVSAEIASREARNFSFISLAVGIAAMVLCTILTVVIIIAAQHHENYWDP

- percent of parent: 50 % µ2
B1: HA-tagged μ2 AP subunit, Q96CW1 FLD→ALS (protein)
chain: MIGGLFIYNHKGEVLISRVYRDDIGRNAVDAFRVNVIHARQQVRSPVTNIARTSFFHVKRSNIWLAAVTKQNVNAAMVFEFLYKMCDVMAAYFGKISEENIKNNFVLIYELLDEILDFGYPQNSETGALKTFITQQGIKSQHQTKEEQSQITSQVTGQIGWRREGIKYRRNELALSVLESVNLLMSPQGQVLSAHVSGRVVMKSYLSGMPECKFGMNDKIVIEKQGKGTADETSKSGKQSIAIDDCTFHQCVRLSKFDSERSISFIPPDGEFELMRYRTTKDIILPFRVIPLVREVGRTKLEVKVVIKSNFKPSLLAQKIEVRIPTPLNTSGVQVICMKGKAKYKASENAIVWKIKRMAGMKESQISAEIELLPTNDKKKWARPPISMNFEVPFAPSGLKVRYLKVFEPKLNYSDHDVIKWVRYIGRSGIYETRC
